B1: TtGalA (Thermus thermophilus HB27) (protein)
chain: MRLNLGGAEVFLRAEGLEEAPGGVRLWGREVRVFPPFPAKGFFRHGWQSWSLAAWVDPAQAPTPLLPEARRPQADDPFLLEAGAWWGSGVGALRGPDGRALLLGALDLGARVLGREDLLLGRYAGEGGAWFLAHGPEEEVFAAYAQLLPRRLSGRPPRVWCSWYSFYTRIGEDLLLRVLDEVAAFSFEVFQIDDGWQRALGDWEPNDRFPRGMAFLAERIRERGLRPGLWFAPFLVTADSPLFQMRPDWVLRDGEGRPVRAGFNWGRPLYALDAGNEEVVEWAADLVRKALAWGYDYLKLDFLYAAALPGAEGEARYRRAMARLREAAGEAYLLFCGAPVLASLGLADGLRVGPDVAPYWDNEERSFWLADPTGPGLRNALRSTLHRLWLMENVHVDPDVVYFRTRFNLLSPEEMRLQEALAHFTGFKATSDPPSWLLPEEKGRLEAFLAREVPVRRLGPYRFRVGEEEVDYAPLL

Tests used:
[1] = molecular target: α-galactosidase from Thermus thermophilus HB27 (TtGalA), N-terminally His-tagged, expressed in T. thermophilus HB27::nar (Thermus thermophilus HB27); experiment: SEC-MALS; size-exclusion chromatography (S200 16/60) with Mini DAWN Treos triple-angle light scattering and QELS; 500 µg of protein (1 mg/ml) loaded; 0.5 ml/min; buffer A (50 mM Tris-HCl pH 7.5, 500 mM NaCl)
purified protein = substrate: O=[N+]([O-])c1ccc(O[C@H]2O[C@H](CO)[C@H](O)[C@H](O)[C@H]2O)cc1; experiment: purified protein; settings: 90 °C, pH 6.0, 50 mM sodium phosphate

Molecule | stoichiometry N [1] | Km (purified protein) [µM] | Vmax (purified protein) [µmol/min/mg] | kcat (purified protein) [s⁻¹]
α-galactosidase from Thermus thermophilus HB27 (TtGalA), N-terminally His-tagged, expressed in T. thermophilus HB27::nar (enzyme) | 6 |  |  | 
B1 |  | 690 ± 17 | 338 | 710

Reference: article PMC5307791, “Thermus thermophilus as source of thermozymes for biotechnological applications: homologous expression and biochemical characterization of an α-galactosidase” (Microbial Cell Factories, 2017)
